According to publication PMC9114768 (2022):

B1: monoclonal antibody 127 (antibody, V domains shown)
VH: QVQLQQPGAELVKPGASVKLSCKASGYTFTSYWMHWVKQRPGQGLEWIGEINPSNGRKNYNEKFKSKATLTVDKSSSTAYMQLSSLTSEDSAVYYCVRGDYGSSYYWYFDVWGAGTTVTVSS
VL: not shown
B2: monoclonal antibody 150 (antibody, V domains shown)
VH: B1 VH
VL: not shown

How the values were obtained:
[1] = target: C-terminal Fc-tagged human ACE2 recombinant protein (human, UniProt Q9BYF1); experiment: SPR
[2] = target: His-tagged SARS-CoV-2 S1-RBD recombinant protein, wild type (SARS-CoV-2, UniProt P0DTC2 319-541); experiment: SPR

Sequence of C-terminal Fc-tagged human ACE2 recombinant protein (Q9BYF1 18-740): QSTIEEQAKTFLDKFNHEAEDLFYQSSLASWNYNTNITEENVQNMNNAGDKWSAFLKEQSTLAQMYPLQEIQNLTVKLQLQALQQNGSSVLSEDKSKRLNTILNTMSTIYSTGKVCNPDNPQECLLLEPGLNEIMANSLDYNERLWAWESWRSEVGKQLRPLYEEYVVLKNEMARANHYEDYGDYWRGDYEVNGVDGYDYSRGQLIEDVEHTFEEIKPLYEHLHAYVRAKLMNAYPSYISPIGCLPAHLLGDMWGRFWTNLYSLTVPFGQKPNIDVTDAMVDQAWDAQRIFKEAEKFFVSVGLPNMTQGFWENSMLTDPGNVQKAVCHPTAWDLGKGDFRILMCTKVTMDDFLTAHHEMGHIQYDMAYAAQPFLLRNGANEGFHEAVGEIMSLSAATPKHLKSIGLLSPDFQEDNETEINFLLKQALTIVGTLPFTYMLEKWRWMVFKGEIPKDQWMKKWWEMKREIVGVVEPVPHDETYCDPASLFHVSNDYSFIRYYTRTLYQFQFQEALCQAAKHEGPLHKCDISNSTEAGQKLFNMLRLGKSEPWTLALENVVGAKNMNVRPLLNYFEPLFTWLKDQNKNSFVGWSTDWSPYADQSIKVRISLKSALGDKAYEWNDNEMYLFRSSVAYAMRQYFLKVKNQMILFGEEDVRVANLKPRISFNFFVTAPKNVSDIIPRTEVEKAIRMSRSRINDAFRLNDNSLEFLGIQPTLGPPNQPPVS

Row | Binder | koff [1] [s⁻¹] | koff [2] [s⁻¹]
1 | B1 | 0.000442 | 0.00013
2 | B2 | 0.00039 | 0.000441
